Target: FcγRI (UniProt P12314)
Assay: BLI (Fortebio Octet), FcγRI immobilized on HIS1K sensor, antibody 3.12-50 nM, 1:1 fit

Chain of FcγRI (P12314 16-288 limits assumed): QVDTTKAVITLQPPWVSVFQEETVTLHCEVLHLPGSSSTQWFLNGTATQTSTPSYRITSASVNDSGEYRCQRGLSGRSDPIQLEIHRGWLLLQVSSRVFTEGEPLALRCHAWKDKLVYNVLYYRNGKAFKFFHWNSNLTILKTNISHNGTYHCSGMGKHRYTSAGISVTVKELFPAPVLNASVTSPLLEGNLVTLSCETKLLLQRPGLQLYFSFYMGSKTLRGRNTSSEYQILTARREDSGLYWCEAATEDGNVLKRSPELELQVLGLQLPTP

A Kd of 6.2 nM was found for Nivolumab (antibody) in this work.

Source: patent US20250114450A1, “PHARMACEUTICAL COMBINATION CONTAINING ANTI-PD-1-ANTI-VEGFA BISPECIFIC ANTIBODY, AND USE THEREOF” (Akeso Biopharma, Inc., priority 2021, published 2025)
